From publication PMC9798103 come the findings set out here.

This assay has as its target F-actin (polymerised from Ca2+-ATP G-actin of rabbit skeletal muscle) (rabbit) (UniProt P68135). Put plainly: co-sedimentation.

Regarding “N-terminal half of RHGF-1 without the PDZ domain (RHGF-1-N-ΔPDZ) (domain or fragment)”, the Kd (usually the equilibrium constant for the complex coming apart) amounted to 14 µM.
